Data reported in patent publication US20230114801A1 (SYSTIMMUNE, published 2023).

Experiments:
human CD3 = target: T1, human CD3 (human, UniProt P07766 23-126; P04234 22-105); experiment: BLI (Octet), binder on AHC sensor, 100 nM human CD3, 1:1 fit
T1 construct: also called His-tagged human CD3; human CD3 (Acro CDD-H52W1)

human HER3 = target: T2, human HER3 (human, UniProt P21860 20-643); experiment: BLI (Octet), binder on AHC sensor, 200 nM human HER3, 1:1 fit
T2 construct: Soluble antigen in Octet; bought; also called human HER3 (Acro ER3-H5223)

human EGFR = target: T3, human EGFR (human, UniProt P00533 25-645, limits assumed); experiment: BLI (Octet), binder on AHC sensor, 200 nM human EGFR, 1:1 fit
T3 construct: Soluble antigen in Octet; construct not described

Kd (human CD3)	Kd (human HER3)	Kd (human EGFR)	Binder
38.1 nM	13.7 nM		SI-75X15 (bispecific antibody, human IgG1, kappa, L234A L235A, bi-miniGNC; D3 αCD3* (Fab), D5 αHER3 VHH) chain 1: QVQLQESGGRLVQPGEPLSLTCKTSGIDLSSNAIGWVRQAPGKGLEWIGVIFGSGNTYYASWAKGRFTISRSTSTVYLKMNSLRSEDTAIYYCARGGYSSDIWGQGTLVTVSSASTKGPSVFPLAPSSKSTSGGTAALGCLVKDYFPEPVTVSWNSGALTSGVHTFPAVLQSSGLYSLSSVVTVPSSSLGTQTYICNVNHKPSNTKVDKRVEPKSCDKTHTCPPCPAPEAAGGPSVFLFPPKPKDTLMISRTPEVTCVVVDVSHEDPEVKFNWYVDGVEVHNAKTKPREEQYNSTYRVVSVLTVLHQDWLNGKEYKCAVSNKALPAPIEKTISKAKGQPREPQVYTLPPSRDELTKNQVSLSCAVKGFYPSDIAVEWESNGQPENNYKTTPPVLDSDGSFFLVSKLTVDKSRWQQGNVFSCSVMHEALHNHYTQKSLSLSPG chain 2: DPQLTQSPSSLSATVGQRVTINCQSSQSVAKNNNLAWFQQKPGKPPKLLIYSASTLAAGVPSRFSGSGSGTQFTLTITRVQSEDFATYYCSARDSGNIQSFGGGTRVEIKRTVAAPSVFIFPPSDEQLKSGTASVVCLLNNFYPREAKVQWKVDNALQSGNSQESVTEQDSKDSTYSLSSTLTLSKADYEKHKVYACEVTHQGLSSPVTKSFNRGECGGDKTHTCPPCPAPEAAGGPSVFLFPPKPKDTLMISRTPEVTCVVVDVSHEDPEVKFNWYVDGVEVHNAKTKPREEQYNSTYRVVSVLTVLHQDWLNGKEYKCAVSNKALPAPIEKTISKAKGQPREPQVYTLPPSRDELTKNQVSLWCLVKGFYPSDIAVEWESNGQPENNYKTTPPVLDSDGSFFLYSKLTVDKSRWQQGNVFSCSVMHEALHNRFTQKSLSLSPGGGGGSGGGGSQVQLVQSGGGLVQAGGSLSLSCAFSGRTFSMYTMGWFRQAPGKEREFVAANRGRGLSPDIADSVNGRFTISRDNAKNTLYLQMDSLKPEDTAVYYCAADLQYGSSWPQRSSAEYDYWGQGTTVTVSS
26.3 nM	7.68 nM	51.5 nM	SI-75X4 (other, tri-miniGNC; D1 αEGFR VHH, D2 αHER3 VHH, D3 αCD3 (Fab)) chain 1: EVQLQESGGGLVQAGDSLSLSCLVSGRSFNSYTMGWFRQAPGKEREFVAAILWSGPTTYYADSVKGRFTISRDNAKNTVYLQMNSLKPEDTAVYYCAAALGVLVLAPGNVYSYWGQGTQVTVSSGGGGSGGGGSEVQLVESGGGLVQPGGSLRLSCAASGFTISTNAMSWVRQAPGKGLEWIGVITGRDITYYASWAKGRFTISRDNSKNTLYLQMSSLRSEDTAVYYCARDGGSSAITSNNIWGQGTLVTVSSASTKGPSVFPLAPSSKSTSGGTAALGCLVKDYFPEPVTVSWNSGALTSGVHTFPAVLQSSGLYSLSSVVTVPSSSLGTQTYICNVNHKPSNTKVDKRVEPKSCDKTHTCPPCPAPEAAGGPSVFLFPPKPKDTLMISRTPEVTCVVVDVSHEDPEVKFNWYVDGVEVHNAKTKPREEQYNSTYRVVSVLTVLHQDWLNGKEYKCAVSNKALPAPIEKTISKAKGQPREPQVYTLPPSRDELTKNQVSLSCAVKGFYPSDIAVEWESNGQPENNYKTTPPVLDSDGSFFLVSKLTVDKSRWQQGNVFSCSVMHEALHNHYTQKSLSLSPG chain 2: QVQLVQSGGGLVQAGGSLSLSCAFSGRTFSMYTMGWFRQAPGKEREFVAANRGRGLSPDIADSVNGRFTISRDNAKNTLYLQMDSLKPEDTAVYYCAADLQYGSSWPQRSSAEYDYWGQGTTVTVSSGGGGSGGGGSDVVMTQSPSTLSASVGDRVTINCQASESISSWLAWYQQKPGKAPKLLIYEASKLASGVPSRFSGSGSGTEFTLTISSLQPDDFATYYCQGYFYFISRTYVNSFGGGTKVEIKRTVAAPSVFIFPPSDEQLKSGTASVVCLLNNFYPREAKVQWKVDNALQSGNSQESVTEQDSKDSTYSLSSTLTLSKADYEKHKVYACEVTHQGLSSPVTKSFNRGECGGDKTHTCPPCPAPEAAGGPSVFLFPPKPKDTLMISRTPEVTCVVVDVSHEDPEVKFNWYVDGVEVHNAKTKPREEQYNSTYRVVSVLTVLHQDWLNGKEYKCAVSNKALPAPIEKTISKAKGQPREPQVYTLPPSRDELTKNQVSLWCLVKGFYPSDIAVEWESNGQPENNYKTTPPVLDSDGSFFLYSKLTVDKSRWQQGNVFSCSVMHEALHNRFTQKSLSLSPG
